# From patent US20230257470A1 (published 2023)
# Where a chain is given by its changes, count along the chain named. Names and notes keep the numbering of the source.
# T1: human FcγRIIa(R) (allotype R131) (human, UniProt P12318 36-217)
# T1 construct: Soluble analyte in SPR; also called hFcgRIIa(R); FcgRIIaR
# T1 chain: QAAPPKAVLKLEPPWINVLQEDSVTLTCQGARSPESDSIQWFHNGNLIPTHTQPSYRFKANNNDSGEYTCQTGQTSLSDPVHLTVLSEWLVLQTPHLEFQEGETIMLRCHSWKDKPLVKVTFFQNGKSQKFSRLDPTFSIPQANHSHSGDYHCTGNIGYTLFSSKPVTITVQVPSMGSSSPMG
# T2: human FcγRIIb (human, UniProt P31994 43-217, limits assumed)
# T2 construct: Soluble analyte in SPR; also called hFcgRIIb; FcgRIIb
# T2 sequence: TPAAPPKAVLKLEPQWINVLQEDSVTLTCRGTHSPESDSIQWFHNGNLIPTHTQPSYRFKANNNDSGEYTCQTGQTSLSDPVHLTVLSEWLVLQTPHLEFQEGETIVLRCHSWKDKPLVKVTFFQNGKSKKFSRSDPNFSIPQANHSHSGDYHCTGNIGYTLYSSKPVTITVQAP
# T3: human FcγRIIa type R (human, UniProt P12318 36-217)
# T3 construct: also called FcγRIIaR; FcγRIIa(R)
# T3 chain: T1 chain
# T4: human FcγRIIb (human, UniProt P31994 43-217)
# T4 construct: also called FcγRIIb extracellular region; FcγIIB
# T4 sequence: T2 sequence
# T5: human FcγRIIa type R (human, UniProt P12318 36-217)
# T5 construct: also called FcgRIIaR; FcγRIIa(R)
# T5 chain: T1 chain
# T6: human FcγRIIa(R) (human, UniProt P12318 36-217)
# T6 construct: also called hFcgRIIa(R); FcγRIIa type R
# T6 chain: T1 chain
# T7: human FcγRIIa(H) (human, UniProt P12318 36-217)
# T7 construct: also called hFcgRIIa(H); FcγRIIa type H
# T7 sequence: T1 chain with R133H
# T8: human FcγRIIb (human, UniProt P31994 43-217, limits assumed)
# T8 construct: also called hFcgRIIb
# T8 sequence: T2 sequence
# T9: human FcγRIIa(H) (human, UniProt P12318 36-217)
# T9 construct: Soluble analyte in SPR; also called FcgRIIaH; FcγRIIa type H
# T9 sequence: T1 chain with R133H
# T10: human FcγRIIb (human, UniProt P31994 43-217, limits assumed)
# T10 construct: Soluble analyte in SPR; also called FcgRIIb; FcγIIB
# T10 sequence: T2 sequence
# T11: human FcγRIIb (human, UniProt P31994 43-217, limits assumed)
# T11 construct: also called FcgRIIb; FcγIIB
# T11 sequence: T2 sequence
# T12: human FcγRIIa(R) (human, UniProt P12318 36-217)
# T12 construct: Soluble analyte in SPR; also called FcgRIIaR; FcγRIIa type R
# T12 chain: T1 chain
# B1: antibody containing VH3-IgG1-F652 for the heavy chain and L(WT)-CK for the light chain (antibody)
# heavy: QVQLQESGPGLVKPSETLSLTCAVSGHSISHDHAWSWVRQPPGEGLEWIGFISYSGITNYNPSLQGRVTISRDNSKNTLYLQMNSLRAEDTAVYYCARSLARTTAMDYWGEGTLVTVSSASTKGPSVFPLAPSSKSTSGGTAALGCLVKDYFPEPVTVSWNSGALTSGVHTFPAVLQSSGLYSLSSVVTVPSSSLGTQTYICNVNHKPSNTKVDKKVEPKSCDKTHTCPPCPAPELLGGDSVFLFPPKPKDTLYISRTPEVTCVVVDVSHEDPEVKFNWYVDGVEVHNAKTKPREEQYNSTYRVVSVLTVLHQDWLNGKEYKCKVSNKALPAPIEKTISKAKGQPREPQVYTLPPSRDELTKNQVSLTCLVKGFYPSDIAVEWESNGQPENNYKTTPPVLDSDGSFFLYSKLTVDKSRWQQGNVFSCSVMHEALHYHYTQKSLSLSP
# light: not shown
# notes: VH3-IgG1-F11 with P238D (EU numbering)
# B2: antibody containing VH3-IgG1-F1356 for the heavy chain and L(WT)-CK for the light chain (antibody)
# heavy: B1 heavy with G238R, D240P, L330R, Y438V
# light: not shown
# B3: IL6R-PD080/IL6R-L (antibody)
# heavy: B1 heavy with G239D
# light: DIQMTQSPSSLSASVGDRVTITCRASQDISSYLNWYQQKPGKAPKLLIYYTSRLHSGVPSRFSGSGSGTDFTFTISSLQPEDIATYYCQQGNTLPYTFGQGTKVEIK
# notes: Alteration is counted against IL6R-F11; also called G237D/P238D; P238D/G237D
# B4: IL6R-BP195/IL6R-L (antibody, human IgG1, name in EU numbering)
# heavy: QVQLQESGPGLVKPSETLSLTCAVSGHSISHDHAWSWVRQPPGEGLEWIGFISYSGITNYNPSLQGRVTISRDNSKNTLYLQMNSLRAEDTAVYYCARSLARTTAMDYWGEGTLVTVSSASTKGPSVFPLAPSSKSTSGGTAALGCLVKDYFPEPVTVSWNSGALTSGVHTFPAVLQSSGLYSLSSVVTVPSSSLGTQTYICNVNHKPSNTKVDKKVEPKSCDKTHTCPPCPAPDYLGDDSVFLFPPKPKDTLMISRTPEVTCVVVDVSDEDGEVKFNWYVDGVEVHNAKTKPREEQDNSTYRVVSVLTVLHQDWLNGKEYKCKVSNAALPKPIEKTISKAKGQPREPQVYTLPPSRDELTKNQVSLTCLVKGFYPSDIAVEWESNGQPENNYKTTPPVLDSDGSFFLYSKLTVDKSRWQQGNVFSCSVMHEALHNHYTQESLSLSP
# light: B3 light
# notes: Anti-human IL-6 receptor IgG1 Fc variant; also called E233D/L234Y/G237D/P238D/H268D/P271G/Y296D/K326A/A330K; copies: 2 + 2
# B5: GpH7-G1d/GpL16-k0 (antibody)
# chain 1: not shown
# chain 2: DIVMTQSPLSLPVTPGEPASISCQASESLVHSNRNTYLHWYLQKPGQSPQLLIYKVSNRFSGVPDRFSGSGSGTDFTLKISRVEAEDVGVYYCSQNTHVPPTFGQGTKVEIERTVAAPSVFIFPPSDEQLKSGTASVVCLLNNFYPREAKVQWKVDNALQSGNSQESVTEQDSKDSTYSLSSTLTLSKADYEKHKVYACEVTHQGLSSPVTKSFNRGEC
# B6: GpH7-B3/GpL16-k0 (antibody, human IgG1)
# heavy: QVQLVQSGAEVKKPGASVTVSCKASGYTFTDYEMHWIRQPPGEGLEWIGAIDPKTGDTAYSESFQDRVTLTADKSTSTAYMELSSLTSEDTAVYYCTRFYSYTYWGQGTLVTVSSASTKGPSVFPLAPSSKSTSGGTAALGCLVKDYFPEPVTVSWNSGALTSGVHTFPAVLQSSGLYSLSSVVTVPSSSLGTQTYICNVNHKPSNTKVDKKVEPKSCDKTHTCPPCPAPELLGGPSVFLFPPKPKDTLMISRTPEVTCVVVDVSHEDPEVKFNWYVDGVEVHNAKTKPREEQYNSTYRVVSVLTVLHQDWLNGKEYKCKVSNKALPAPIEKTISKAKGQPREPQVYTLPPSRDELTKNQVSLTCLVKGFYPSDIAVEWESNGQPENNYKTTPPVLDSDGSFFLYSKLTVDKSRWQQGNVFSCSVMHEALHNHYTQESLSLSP
# light: DIVMTQSPLSLPVTPGEPASISCQASESLVHSNRNTYLHWYLQKPGQSPQLLIYKVSNRFSGVPDRFSGSGSGTDFTLKISRVEAEDVGVYYCSQNTHVPPTFGQGTKVEIE
# notes: also called anti-glypican-3 antibody with B3 constant region (G1d with K439E)
# B7: GpH7-B3 variant P238K/GpL16-k0 (antibody, human IgG1)
# heavy: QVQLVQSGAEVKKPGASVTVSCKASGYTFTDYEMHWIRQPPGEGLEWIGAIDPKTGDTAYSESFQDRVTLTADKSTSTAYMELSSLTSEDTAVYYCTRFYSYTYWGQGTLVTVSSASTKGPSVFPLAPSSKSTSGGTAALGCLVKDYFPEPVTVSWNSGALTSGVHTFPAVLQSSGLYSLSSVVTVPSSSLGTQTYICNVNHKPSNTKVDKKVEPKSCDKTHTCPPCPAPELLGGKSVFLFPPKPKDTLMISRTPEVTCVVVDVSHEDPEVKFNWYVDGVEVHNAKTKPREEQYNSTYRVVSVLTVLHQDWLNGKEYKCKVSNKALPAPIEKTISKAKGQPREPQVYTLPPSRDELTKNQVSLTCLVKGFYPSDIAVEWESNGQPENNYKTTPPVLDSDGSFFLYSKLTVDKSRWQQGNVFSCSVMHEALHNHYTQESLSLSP
# light: B6 light
# notes: copies: 2 + 2
# B8: GpH7-B3 variant P238W/GpL16-k0 (antibody, human IgG1)
# heavy: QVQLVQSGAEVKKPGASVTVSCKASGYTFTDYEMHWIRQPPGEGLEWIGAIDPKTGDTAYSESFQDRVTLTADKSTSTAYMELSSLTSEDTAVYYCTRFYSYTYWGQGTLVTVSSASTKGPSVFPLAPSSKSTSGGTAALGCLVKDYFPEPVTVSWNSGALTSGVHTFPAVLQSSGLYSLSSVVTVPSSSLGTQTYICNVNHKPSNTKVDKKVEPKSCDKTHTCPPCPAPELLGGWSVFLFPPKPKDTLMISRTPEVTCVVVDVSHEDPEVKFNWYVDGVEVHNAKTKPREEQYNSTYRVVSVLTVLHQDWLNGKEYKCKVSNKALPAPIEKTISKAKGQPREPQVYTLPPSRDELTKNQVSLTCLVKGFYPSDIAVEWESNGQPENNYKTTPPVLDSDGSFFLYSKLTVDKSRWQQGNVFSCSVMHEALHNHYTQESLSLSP
# light: B6 light
# notes: copies: 2 + 2
# B9: GpH7-B3 L235R/GpL16-k0 (antibody, human IgG1)
# heavy: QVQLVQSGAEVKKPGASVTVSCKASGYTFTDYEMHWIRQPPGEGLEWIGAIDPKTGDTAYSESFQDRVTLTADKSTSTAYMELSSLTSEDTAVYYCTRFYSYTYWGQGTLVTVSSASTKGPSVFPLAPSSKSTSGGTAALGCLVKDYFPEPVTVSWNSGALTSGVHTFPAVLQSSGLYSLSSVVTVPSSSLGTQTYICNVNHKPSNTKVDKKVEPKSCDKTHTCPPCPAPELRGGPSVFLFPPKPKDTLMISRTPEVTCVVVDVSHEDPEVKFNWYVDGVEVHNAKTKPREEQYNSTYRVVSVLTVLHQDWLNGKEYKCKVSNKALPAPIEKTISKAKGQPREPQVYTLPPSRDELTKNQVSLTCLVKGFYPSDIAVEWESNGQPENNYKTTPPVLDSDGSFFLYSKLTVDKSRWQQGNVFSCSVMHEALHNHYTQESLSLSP
# light: B6 light
# notes: anti-glypican-3 IgG1; B3 constant region (G1d with K439E); also called B3 variant; copies: 2 + 2
# B10: GpH7-B3 G236R/GpL16-k0 (antibody, human IgG1)
# heavy: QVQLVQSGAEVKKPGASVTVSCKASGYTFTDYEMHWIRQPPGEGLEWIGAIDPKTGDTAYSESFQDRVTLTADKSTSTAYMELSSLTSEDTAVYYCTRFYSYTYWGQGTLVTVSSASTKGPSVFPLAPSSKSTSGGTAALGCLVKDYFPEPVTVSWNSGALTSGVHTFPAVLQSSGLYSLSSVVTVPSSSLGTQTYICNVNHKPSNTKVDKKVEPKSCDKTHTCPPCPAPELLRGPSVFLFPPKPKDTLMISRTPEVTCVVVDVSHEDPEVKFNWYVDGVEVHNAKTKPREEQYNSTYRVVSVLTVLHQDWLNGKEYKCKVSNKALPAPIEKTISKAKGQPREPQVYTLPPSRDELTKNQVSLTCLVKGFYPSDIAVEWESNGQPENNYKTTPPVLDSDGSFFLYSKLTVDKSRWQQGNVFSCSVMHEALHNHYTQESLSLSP
# light: B6 light
# notes: as for B9
# B11: GpH7-B3 variant D265F/GpL16-k0 (antibody, human IgG1)
# heavy: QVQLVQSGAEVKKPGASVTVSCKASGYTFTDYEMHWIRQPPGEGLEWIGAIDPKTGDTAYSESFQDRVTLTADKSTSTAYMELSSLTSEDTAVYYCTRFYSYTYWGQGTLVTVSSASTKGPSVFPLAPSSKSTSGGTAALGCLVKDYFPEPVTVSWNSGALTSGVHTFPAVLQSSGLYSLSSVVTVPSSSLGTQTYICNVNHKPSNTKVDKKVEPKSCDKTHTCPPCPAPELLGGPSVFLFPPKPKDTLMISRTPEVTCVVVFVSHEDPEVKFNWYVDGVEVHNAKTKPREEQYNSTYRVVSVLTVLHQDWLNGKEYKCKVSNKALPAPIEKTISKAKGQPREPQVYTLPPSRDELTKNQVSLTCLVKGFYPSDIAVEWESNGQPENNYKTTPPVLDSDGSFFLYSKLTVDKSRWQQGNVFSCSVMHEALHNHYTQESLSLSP
# light: B6 light
# notes: copies: 2 + 2
# Key:
# [1] = target: T1, human FcγRIIa(R) (allotype R131); assay: SPR (Biacore T100), antibody captured by Protein L, FcγR as analyte, pH 7.4, 25 C
# Procedure: (§1) Interaction of these antibodies with FcγRIIa(R) and FcγRIIb was analyzed using the BIACORE™ T100 surface plasmon resonance system (GE Healthcare). Measurements were carried out at 25° C. using a buffer consisting of 20 mM N-(2-acetamido)-2-aminoethanesulfonic acid (ACES), 150 mM NaCl and 0.05% polysorbate 20 (Tween 20®) (pH 7.4) for the running buffer. The Series S Sensor Chip CM4 (GE Healthcare) was used after immobilizing Protein L by amine coupling. […] Antibody captured on the chip was washed by reacting with 10 mM glycine-HCl (pH 1.5) following measurement, and the chip regenerated in this manner was used repeatedly.
# (§2) Measurement results were analyzed using the BIACORE™ Evaluation Software. Antibody was captured by Protein L, and the amount of change in a sensorgram before and after the antibody was captured was defined as X1. […]
# human FcγRIIb [2] = target: T2, human FcγRIIb; assay: as above
# Procedure: as §1, §2
# human FcγRIIIa(F) [3] = target: T13, human FcγRIIIa(F) (human, UniProt P08637 17-208, limits assumed); assay: SPR (Biacore), antibody captured on Protein L, human FcgR injected, pH 7.4, 25 C; normalised to captured amount x 1500
# T13 construct: also called hFcgRIIIa(F); allotype F158
# T13 sequence (P08637 other isoform, or with tags, fused parts or gaps limits assumed): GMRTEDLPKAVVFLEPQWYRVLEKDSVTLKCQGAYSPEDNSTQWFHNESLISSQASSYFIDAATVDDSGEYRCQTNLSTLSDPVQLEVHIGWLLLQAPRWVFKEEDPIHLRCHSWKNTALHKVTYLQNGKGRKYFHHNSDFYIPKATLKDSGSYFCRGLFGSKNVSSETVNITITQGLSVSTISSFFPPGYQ
# Procedure: Binding activity between the antibodies and human FcγRIa, FcγRIIa(H), FcγRIIa(R), FcγRIIb and FcγRIIIa(F) (hereinafter referred to as human FcγRs) was evaluated using the BIACORE™ T100 or T200 surface plasmon resonance system (GE Healthcare). The antibodies being tested were captured by Protein L (ACTIGEN® protein (Alltech)) that was immobilized in suitable amounts on the CM4 Sensor Chip (GE Healthcare) by amine coupling. Next, the diluted human FcγRs and a running buffer used as a blank were injected to allow interaction with the antibodies captured on the sensor chip. A buffer consisting of 20 mmol/L N-(2-acetamido)-2-aminoethanesulfonic acid (ACES), 150 mmol/L NaCl and 0.05% (w/v) polysorbate 20 (Tween 20®) (pH 7.4) was used for the running buffer, and this buffer was also used to dilute the human FcγRs. 10 mmol/L glycine-HCl (pH 1.5) was used to regenerate the sensor chip. All measurements were carried out at 25° C.
# Binding activity to human FcγRs can be represented by the relative binding activity to human FcγRs. Antibody was captured by Protein L, and the amount of change in a sensorgram before and after the antibody was captured was defined as X1. […]
# human FcγRIa [4] = target: T14, human FcγRIa (human, UniProt P12314 16-292, limits assumed); assay: SPR (Biacore), antibody captured, FcγR as analyte, method of Example 14
# T14 construct: also called CD64
# T14 sequence (P12314 16-292 limits assumed): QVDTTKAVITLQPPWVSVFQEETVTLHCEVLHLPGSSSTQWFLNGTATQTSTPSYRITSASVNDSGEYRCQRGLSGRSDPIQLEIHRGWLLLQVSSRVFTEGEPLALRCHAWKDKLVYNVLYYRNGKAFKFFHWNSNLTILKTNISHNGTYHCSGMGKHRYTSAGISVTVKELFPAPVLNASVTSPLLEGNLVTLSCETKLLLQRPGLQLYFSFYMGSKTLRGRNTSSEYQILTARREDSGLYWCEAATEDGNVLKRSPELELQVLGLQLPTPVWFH
# Procedure: (§3) Next, interaction between these antibodies and FcγR was analyzed kinetically using the BIACORE™ T100 (GE Healthcare). The interaction was measured at a temperature of 25° C. using HBS-EP+ (GE Healthcare) for the running buffer. The Series S Sensor Chip CM5 (GE Healthcare) was used after immobilizing Protein A by amine coupling. […] Antibody captured on the chip was washed by allowing 10 mM glycine-HCl (pH 1.5) to react following measurement. The chip regenerated in this manner was used repeatedly. The dissociation constant KD (mol/L) was calculated from the association rate constant ka (L/mol/s) and dissociation rate constant kd (1/s) as calculated by global-fitting the measurement results with a 1:1 Langmuir binding model using the BIACORE™ Evaluation Software.
# (§4) Furthermore, KD(IIaR)/KD(IIb) and KD(IIaH)/KD(IIb) in the table respectively show the value obtained by dividing the KD value of each variant for FcγRIIaR by the KD value of each variant for FcγRIIb, and the value obtained by dividing the KD value of each variant for FcγRIIaH by the KD value of each variant for FcγRIIb.
# human FcγRIIa type R [5] = target: T3, human FcγRIIa type R; assay: as above
# Procedure: as §3, §4
# human FcγRIIb [6] = target: T4, human FcγRIIb; assay: as above
# Procedure: as §3, §4
# human FcγRIIb [7] = target: T4, human FcγRIIb; assay: ratio of SPR KD values of the same variant: KD for FcγRIIaH / KD for FcγRIIb
# Procedure: as §3, §4
# human FcγRIIb [8] = target: T4, human FcγRIIb; assay: ratio of SPR KD values of the same variant: KD for FcγRIIaR / KD for FcγRIIb
# Procedure: as §3, §4
# human FcγRIIb [9] = target: T4, human FcγRIIb; assay: ratio of SPR KD values for FcγRIIb; reference: parent polypeptide IL6R-F11/IL6R-L
# Procedure: as §3, §4
# human FcγRIIa type R [10] = target: T5, human FcγRIIa type R; assay: SPR (Biacore), amount of FcγR bound to captured antibody relative to IL6R-BF648/IL6R-L x100
# Procedure: According to the following method, relative binding activities were calculated for the results of analyzing interactions with the respective FcγRs.
# human FcγRIa [11] = target: T15, human FcγRIa (human, UniProt P12314 16-292, limits assumed); assay: SPR (Biacore), antibody captured on chip, FcgR injected, HBS-EP+, 25 C; bound amount corrected by captured amount; reference itself
# T15 construct: also called hFcgRIa
# T15 sequence (P12314 16-292 limits assumed): as above
# human FcγRIIa(R) [12] = target: T6, human FcγRIIa(R); assay: as above
# human FcγRIIa(H) [13] = target: T7, human FcγRIIa(H); assay: as above
# human FcγRIIb [14] = target: T8, human FcγRIIb; assay: as above
# human FcγRIIIa(F) [15] = target: T13, human FcγRIIIa(F); assay: as above
# human FcγRIa [16] = target: T15, human FcγRIa; assay: SPR (Biacore), antibody captured on chip, FcgR injected, HBS-EP+, 25 C; bound amount corrected by captured amount; reference GpH7-G1d/GpL16-k0
# Procedure: (§5) Interaction between each modified antibody and Fcγ receptor prepared in the manner described above was analyzed using the BIACORE™ T100 surface plasmon resonance system (GE Healthcare), BIACORE™ T200 surface plasmon resonance system (GE Healthcare), BIACORE™ A100 surface plasmon resonance system or BIACORE™ 4000 surface plasmon resonance system. HBS-EP+(GE Healthcare) was used for the running buffer, and measurements were carried out at 25° C. The chips used were chips in which antigen peptides, Protein A (Thermo Scientific), Protein A/G (Thermo Scientific) or Protein L (ACTIGEN® protein (Alltech or BioVision) were immobilized on the Series S Sensor Chip CM5 (GE Healthcare) or Series S Sensor Chip CM4 (GE Healthcare) by amine coupling, or chips in which preliminarily biotinylated antigen peptides were allowed to interact and then immobilized on the Series S Sensor Chip SA (certified) (GE Healthcare). The target antibodies were captured on these sensor chips, Fcγ receptor diluted with the running buffer was allowed to interact, followed by measurement of the amount of bound antibody. The amounts bound were compared between antibodies. However, since the amount of Fcγ receptor bound depends on the amount of captured antibody, the values used for comparison were first corrected by dividing the amount of Fcγ receptor bound by the captured amount of each antibody. Through reaction with 10 mM glycine-HCl at pH 1.5, the sensor chips were regenerated by washing off antibody captured on the sensor chips and used repeatedly.
# human FcγRIIa(R) [17] = target: T6, human FcγRIIa(R); assay: as above
# Procedure: as §5
# human FcγRIIa(H) [18] = target: T7, human FcγRIIa(H); assay: as above
# Procedure: as §5
# human FcγRIIb [19] = target: T8, human FcγRIIb; assay: as above
# Procedure: as §5
# human FcγRIIIa(F) [20] = target: T13, human FcγRIIIa(F); assay: as above
# Procedure: as §5
# human FcγRIIa(H) [21] = target: T9, human FcγRIIa(H); assay: SPR, captured antibody, FcγR as analyte
# Procedure: as §5
# (§6) Binding strength was evaluated according to the following method based on the results of analyzing the interaction with each FcγR. […] That value was then further multiplied by 100, and the resulting value was used as an indicator of relative binding activity to each FcγR.
# human FcγRIIb [22] = target: T10, human FcγRIIb; assay: SPR, captured antibody, FcγR as analyte
# Procedure: as §5, §6
# human FcγRIIIa(F) [23] = target: T16, human FcγRIIIa(F) (human, UniProt P08637 17-208, limits assumed); assay: SPR, captured antibody, FcγR as analyte
# T16 construct: Soluble analyte in SPR; allotype F158 stood in the assay; also called FcgRIIIaF; FcγRIIIa allotype F158
# T16 sequence (P08637 other isoform, or with tags, fused parts or gaps limits assumed): as the sequence (P08637 other isoform, or with tags, fused parts or gaps limits assumed) above
# Procedure: as §5, §6
# human FcγRIIb [24] = target: T11, human FcγRIIb; assay: SPR, captured antibody, FcγR analyte; bound amount per captured antibody
# Procedure: as §5, §6
# human FcγRIIIa(F) [25] = target: T17, human FcγRIIIa(F) (human, UniProt P08637 17-208, limits assumed); assay: as above
# T17 construct: also called FcgRIIIaF; FcγRIIIa allotype F158
# T17 sequence (P08637 other isoform, or with tags, fused parts or gaps limits assumed): as above
# Procedure: as §5, §6
# human FcγRIIa(R) [26] = target: T12, human FcγRIIa(R); assay: SPR, captured antibody, FcγR as analyte
# Procedure: as §5, §6
binder,measurement,setting,value
B1,BINDING AMOUNT (RU),[1],9.1 RU
same,BINDING AMOUNT (RU),human FcγRIIb [2],64 RU
B2,BINDING AMOUNT (RU),human FcγRIIIa(F) [3],4.09 RU
B3,Kd,human FcγRIa [4],140 nM
same,Kd,human FcγRIIa type R [5],21000 nM
same,Kd,human FcγRIIb [6],2000 nM
same,KD(IIaH)/KD(IIb),human FcγRIIb [7],12.8
same,KD(IIaR)/KD(IIb),human FcγRIIb [8],10.7
same,KD(IIb) of parent polypeptide/KD(IIb) of altered polypeptide,human FcγRIIb [9],3.5
B4,relative binding activity,human FcγRIIa type R [10],661 % of IL6R-BF648/IL6R-L
B5,relative binding activity (amount bound / amount bound by GpH7-G1d/GpL16-k0 x 100),human FcγRIa [11],100
same,relative binding activity (amount bound / amount bound by GpH7-G1d/GpL16-k0 x 100),human FcγRIIa(R) [12],100
same,relative binding activity (amount bound / amount bound by GpH7-G1d/GpL16-k0 x 100),human FcγRIIa(H) [13],100
same,relative binding activity (amount bound / amount bound by GpH7-G1d/GpL16-k0 x 100),human FcγRIIb [14],100
same,relative binding activity (amount bound / amount bound by GpH7-G1d/GpL16-k0 x 100),human FcγRIIIa(F) [15],100
B6,relative binding activity (amount bound / amount bound by GpH7-G1d/GpL16-k0 x 100),human FcγRIa [16],109
same,relative binding activity (amount bound / amount bound by GpH7-G1d/GpL16-k0 x 100),human FcγRIIa(R) [17],94
same,relative binding activity (amount bound / amount bound by GpH7-G1d/GpL16-k0 x 100),human FcγRIIa(H) [18],92
same,relative binding activity (amount bound / amount bound by GpH7-G1d/GpL16-k0 x 100),human FcγRIIb [19],88
same,relative binding activity (amount bound / amount bound by GpH7-G1d/GpL16-k0 x 100),human FcγRIIIa(F) [20],88
B7,relative binding activity,human FcγRIIa(H) [21],1 % of GpH7-B3/GpL16-k0
same,relative binding activity,human FcγRIIb [22],2 % of GpH7-B3/GpL16-k0
B8,relative binding activity,human FcγRIIIa(F) [23],1 % of GpH7-B3/GpL16-k0
B9,relative binding activity,human FcγRIIb [24],2 % of GpH7-B3/GpL16-k0
B10,relative binding activity,human FcγRIIIa(F) [25],1 % of GpH7-B3/GpL16-k0
B11,relative binding activity,human FcγRIIa(R) [26],1 % of GpH7-B3/GpL16-k0
